Assay results from patent publication US20240279325A1 (Chugai, published 2024).
Positions count from the first letter of the chain named.

Assays:
mouse FcγRI = target: T1, mouse FcγRI (mouse, UniProt P26151 25-297); assay: SPR (Biacore), method of Reference Example 2
T1 construct: extracellular domain; also called mFcγRI
T1 sequence (looked up): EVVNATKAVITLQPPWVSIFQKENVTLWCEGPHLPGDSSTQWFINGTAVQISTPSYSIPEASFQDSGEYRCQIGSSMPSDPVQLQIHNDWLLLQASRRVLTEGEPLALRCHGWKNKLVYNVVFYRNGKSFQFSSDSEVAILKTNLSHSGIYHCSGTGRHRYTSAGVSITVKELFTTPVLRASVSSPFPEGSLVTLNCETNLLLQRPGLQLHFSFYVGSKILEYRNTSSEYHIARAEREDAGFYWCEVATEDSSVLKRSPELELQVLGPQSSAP

mouse FcγRIV = target: T2, mouse FcγRIV (mouse, UniProt A0A0B4J1G0 21-203); assay: SPR (Biacore), method of Reference Example 2
T2 construct: also called mFcγRIV; not shown: purification tag of the soluble receptor (probably a His tag)
T2 sequence: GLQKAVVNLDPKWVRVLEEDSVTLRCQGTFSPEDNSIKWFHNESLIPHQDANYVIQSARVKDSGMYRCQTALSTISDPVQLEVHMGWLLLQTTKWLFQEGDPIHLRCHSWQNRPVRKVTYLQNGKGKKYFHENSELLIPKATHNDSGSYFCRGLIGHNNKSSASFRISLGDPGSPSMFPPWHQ

[1] = target: T3, human FcγRIa extracellular domain with C-terminal His tag (human, UniProt P12314 16-292); assay: SPR (Biacore), captured antibody, FcγR analyte
T3 construct: extracellular domain; also called FrgRIa
T3 sequence (P12314 16-292): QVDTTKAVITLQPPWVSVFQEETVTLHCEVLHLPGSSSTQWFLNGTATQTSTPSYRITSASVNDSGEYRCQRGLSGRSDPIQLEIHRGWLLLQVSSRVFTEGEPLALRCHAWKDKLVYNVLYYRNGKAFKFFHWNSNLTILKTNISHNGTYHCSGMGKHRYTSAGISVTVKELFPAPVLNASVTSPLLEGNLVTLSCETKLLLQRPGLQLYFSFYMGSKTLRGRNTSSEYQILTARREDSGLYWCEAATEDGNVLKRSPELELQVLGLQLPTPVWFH

[2] = target: T4, human FcγRIIa type R (allotype R131) extracellular domain with C-terminal His tag (human, UniProt P12318 34-217); assay: SPR (Biacore), captured antibody, FcγR analyte
T4 construct: extracellular domain; also called FcγRIIaR; FrgRIIaR
T4 sequence (looked up): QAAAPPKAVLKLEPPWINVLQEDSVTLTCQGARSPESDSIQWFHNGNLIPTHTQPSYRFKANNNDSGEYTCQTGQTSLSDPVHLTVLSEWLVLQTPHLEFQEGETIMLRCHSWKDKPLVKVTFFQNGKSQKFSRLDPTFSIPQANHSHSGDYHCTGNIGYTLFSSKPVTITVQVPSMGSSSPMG

[3] = target: T5, human FcγRIIa type H (allotype H131) extracellular domain with C-terminal His tag (human, UniProt P12318 34-217); assay: SPR (Biacore), captured antibody, FcγR analyte
T5 construct: extracellular domain; also called FcγRIIaH; FrgRIIaH
T5 sequence (looked up): T4 sequence (looked up) with R134H

[4] = target: T6, human FcγRIIIa type V (allotype V158) extracellular domain with C-terminal His tag (human, UniProt P08637 17-208); assay: SPR (Biacore), captured antibody, FcγR analyte
T6 construct: extracellular domain; also called FcγRIIIaV; FrgRIIIaV
T6 sequence (P08637 17-208 F176V): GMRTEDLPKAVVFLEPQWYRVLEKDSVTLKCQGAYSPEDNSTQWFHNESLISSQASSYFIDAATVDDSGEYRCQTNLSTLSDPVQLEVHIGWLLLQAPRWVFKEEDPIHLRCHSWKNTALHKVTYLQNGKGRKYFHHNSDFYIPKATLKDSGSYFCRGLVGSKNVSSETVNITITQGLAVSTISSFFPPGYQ

[5] = target: T7, human FcγRIIa type R (allotype R131) extracellular domain with C-terminal His tag (human, UniProt P12318 34-217); assay: SPR (Biacore), antibody captured, FcγR analyte
T7 construct: extracellular domain; also called FcγRIIaR; not shown: His tag at the C terminus
T7 sequence (looked up): T4 sequence (looked up)

[6] = target: T8, human FcγRIIa type H (allotype H131) extracellular domain with C-terminal His tag (human, UniProt P12318 34-217); assay: SPR (Biacore), captured antibody, FcγR analyte
T8 construct: also called FcγRIIaH
T8 sequence: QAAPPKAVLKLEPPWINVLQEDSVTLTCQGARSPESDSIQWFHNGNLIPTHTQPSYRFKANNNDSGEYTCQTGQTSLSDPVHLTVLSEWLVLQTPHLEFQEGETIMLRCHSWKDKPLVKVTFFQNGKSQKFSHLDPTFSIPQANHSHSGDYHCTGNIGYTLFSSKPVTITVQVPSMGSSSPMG

[7] = target: T9, FcγRIIb extracellular domain with C-terminal His tag (human, UniProt P31994 43-217); assay: SPR; KD for FcγRIIaH divided by KD for FcγRIIb
T9 construct: extracellular domain
T9 sequence (looked up): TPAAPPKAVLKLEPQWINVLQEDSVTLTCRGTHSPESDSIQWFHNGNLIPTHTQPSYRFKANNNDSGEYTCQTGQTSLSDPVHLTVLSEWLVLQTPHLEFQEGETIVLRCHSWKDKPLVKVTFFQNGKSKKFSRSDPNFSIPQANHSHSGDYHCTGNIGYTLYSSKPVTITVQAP

[8] = target: T9, FcγRIIb extracellular domain with …; assay: SPR; KD for FcγRIIaR divided by KD for FcγRIIb
[9] = target: T10, FcγRIIa type H (allotype H131) extracellular domain with C-terminal His tag (human, UniProt P12318 34-217); assay: SPR (Biacore), antibody captured, FcγR as analyte
T10 construct: extracellular domain; also called FcγRIIaH; FcγRIIa H type
T10 sequence (looked up): T4 sequence (looked up) with R134H

[10] = target: T11, FcγRIIa type R (allotype R131) extracellular domain with C-terminal His tag (human, UniProt P12318 34-217); assay: SPR; KD of IL6R-B3/IL6R-L divided by KD of the variant
T11 construct: extracellular domain; also called FcγRIIaR; FcγRIIa R type
T11 sequence (looked up): T4 sequence (looked up)

[11] = target: T9, FcγRIIb extracellular domain with …; assay: as above
[12] = target: T12, human FcγRIIIa type V (allotype V158) extracellular domain with C-terminal His tag (human, UniProt P08637 17-208); assay: SPR (Biacore), antibody captured, FcγR analyte
T12 construct: extracellular domain; also called FcγRIIIaV; FcγRIIIa V type; not shown: His tag at the C terminus
T12 sequence (P08637 17-208 F176V): as the sequence (P08637 17-208 F176V) above

[13] = target: T13, human FcγRIIa type H (allotype H131) extracellular domain with C-terminal His tag (human, UniProt P12318 34-217); assay: SPR (Biacore), antibody captured, FcγR analyte
T13 construct: extracellular domain; also called FcγRIIaH; not shown: His tag at the C terminus
T13 sequence (looked up): T4 sequence (looked up) with R134H

[14] = target: T13, human FcγRIIa type H (allotype H131) …; assay: SPR (Biacore), antibody captured, FcγR analyte; remark: listed apart in the source

B1: VH3/L(WT)-mIgG1-mF44 (antibody)
heavy: QVQLQESGPGLVKPSETLSLTCAVSGHSISHDHAWSWVRQPPGEGLEWIGFISYSGITNYNPSLQGRVTISRDNSKNTLYLQMNSLRAEDTAVYYCARSLARTTAMDYWGEGTLVTVSSAKTTPPSVYPLAPGSAAQTNSMVTLGCLVKGYFPEPVTVTWNSGSLSSGVHTFPAVLQSDLYTLSSSVTVPSSTWPSETVTCNVAHPASSTKVDKKIVPRDCGCKPCICTVPEVSSVFIFPPKPKDVLTITLTPKVTCVVVDISKDDPEVQFSWFVDDVEVHTAQTQPREEQFNSTFRSVSELPIMHQDWLNGKEFKCRVNSADFPAPIEKTISKTKGRPKAPQVYTIPPPKEQMAKDKVSLTCMITDFFPEDITVEWQWNGQPAENYKNTQPIMDTDGSYFVYSKLNVQKSNWEAGNTFTCSVLHEGLHNHHTEKSLSHSPGK
light: not shown
notes: copies: 2 + 2
Mouse FcγRI
  binding result: no binding
Mouse FcγRIV
  binding result: no binding

B2: VH3/L(WT)-mIgG1 (antibody)
heavy: B1 heavy with D323A
light: not shown
notes: mouse IgG1 constant region; copies: 2 + 2
Mouse FcγRI
  binding result: no binding
Mouse FcγRIV
  binding result: no binding

B3: VH3/L(WT)-mIgG1-mF46 (antibody)
heavy: B1 heavy with S235D
light: not shown
notes: copies: 2 + 2
Mouse FcγRI
  binding result: no binding
Mouse FcγRIV
  binding result: no binding

B4: IL6R-BP195/IL6R-L (antibody, human IgG1, kappa, name in EU numbering)
heavy: QVQLQESGPGLVKPSETLSLTCAVSGHSISHDHAWSWVRQPPGEGLEWIGFISYSGITNYNPSLQGRVTISRDNSKNTLYLQMNSLRAEDTAVYYCARSLARTTAMDYWGEGTLVTVSSASTKGPSVFPLAPSSKSTSGGTAALGCLVKDYFPEPVTVSWNSGALTSGVHTFPAVLQSSGLYSLSSVVTVPSSSLGTQTYICNVNHKPSNTKVDKKVEPKSCDKTHTCPPCPAPDYLGDDSVFLFPPKPKDTLMISRTPEVTCVVVDVSDEDGEVKFNWYVDGVEVHNAKTKPREEQDNSTYRVVSVLTVLHQDWLNGKEYKCKVSNAALPKPIEKTISKAKGQPREPQVYTLPPSRDELTKNQVSLTCLVKGFYPSDIAVEWESNGQPENNYKTTPPVLDSDGSFFLYSKLTVDKSRWQQGNVFSCSVMHEALHNHYTQESLSLSP
light: not shown
notes: Alterations introduced into IL6R-B3, EU numbering; copies: 2 + 2
[1]
  relative binding activity: 68 % of IL6R-BF648/IL6R-L binding
[2]
  relative binding activity: 661 % of IL6R-BF648/IL6R-L binding
[3]
  relative binding activity: 344 % of IL6R-BF648/IL6R-L binding
[4]
  relative binding activity: 221 % of IL6R-BF648/IL6R-L binding

B5: IL6R-BP206/IL6R-L (antibody, human IgG1, kappa, name in EU numbering)
heavy: B4 heavy with Y236L, D239G, D270H, D298Y, A328K, K332R
light: not shown
notes: EU numbering; copies: 2 + 2
[5]
  Kd: 5.1 µM

B6: IL6R-BP456/IL6R-L (antibody, human IgG1, kappa, name in EU numbering)
heavy: B4 heavy with Y236L, S269A, D270E, D298Y, A328K, K332R, P398M
light: not shown
notes: copies: 2 + 2
[6]
  Kd: 2 µM

B7: IL6R-BP488/IL6R-L (antibody, human IgG1, kappa, name in EU numbering)
heavy: B4 heavy with Y236L, V266I, S269A, D270E, A328K, K332R
light: not shown
notes: copies: 2 + 2
[7]
  KD(IIaH)/KD(IIb): 865
[8]
  KD(IIaR)/KD(IIb): 40.1
[9]
  Kd: 1.5 µM
[10]
  KD(IIaR) OF PARENT POLYPEPTIDE/KD(IIaR) OF ALTERED POLYPEPTIDE: 14.8
[11]
  KD(IIb) OF PARENT POLYPEPTIDE/KD(IIb) OF ALTERED POLYPEPTIDE: 1680

B8: IL6R-BP447/IL6R-L (antibody, human IgG1, kappa, name in EU numbering)
heavy: B4 heavy with Y236L, S269A, D270E, D298Y, A328K, K332R, P398A
light: not shown
notes: copies: 2 + 2
[6]
  Kd: 2 µM

B9: IL6R-BP231/IL6R-L (antibody, human IgG1, kappa, name in EU numbering)
heavy: B4 heavy with D235E, Y236L, A328K, K332R
light: not shown
notes: EU numbering; copies: 2 + 2
[12]
  Kd: 40 µM

B10: IL6R-BP217/IL6R-L (antibody, human IgG1, kappa, name in EU numbering)
heavy: B4 heavy with D235E, Y236L, S269Q, A328K
light: not shown
notes: EU numbering; copies: 2 + 2
[12]
  Kd: 60 µM

B11: IL6R-BP184/IL6R-L (antibody, human IgG1, kappa, name in EU numbering)
heavy: B4 heavy with Y236L, D239G, D270H, D298Y, A328K
light: not shown
notes: EU numbering; copies: 2 + 2
[5]
  Kd: 1.3 µM

B12: IL6R-BP234/IL6R-L (antibody, human IgG1, kappa, name in EU numbering)
heavy: B4 heavy with S269Q, A328D
light: not shown
notes: EU numbering; copies: 2 + 2
[13]
  Kd: 20 µM

B13: IL6R-BP243/IL6R-L (antibody, human IgG1, kappa, name in EU numbering)
heavy: B4 heavy with D298Y, A328K, K332R
light: not shown
notes: EU numbering; copies: 2 + 2
[13]
  Kd: 6 µM

B14: IL6R-BP451/IL6R-L (antibody, human IgG1, kappa, name in EU numbering)
heavy: B4 heavy with Y236L, S269A, D270E, D298Y, A328K, K332R, P398G
light: not shown
notes: copies: 2 + 2
[6]
  Kd: 2 µM

B15: IL6R-BP238/IL6R-L (antibody, human IgG1, kappa, name in EU numbering)
heavy: B4 heavy with K332R
light: not shown
notes: EU numbering; copies: 2 + 2
[13]
  Kd: 7 µM

B16: IL6R-BP183/IL6R-L (antibody, human IgG1, kappa, name in EU numbering)
heavy: B4 heavy with D239G, D270H, D298Y
light: not shown
notes: EU numbering; copies: 2 + 2
[5]
  Kd: 1.6 µM

B17: IL6R-BP200/IL6R-L (antibody, human IgG1, kappa, name in EU numbering)
heavy: B4 heavy with D270H, D298Y, A328D, K332R
light: not shown
notes: EU numbering; copies: 2 + 2
[5]
  Kd: 0.68 µM
[14]
  Kd: 42 µM

B18: IL6R-BP504/IL6R-L (antibody, human IgG1, kappa, name in EU numbering)
heavy: B4 heavy with Y236L, V266I, S269A, D270E, E274P, D298Y, A328K, K332A
light: not shown
notes: copies: 2 + 2
[7]
  KD(IIaH)/KD(IIb): 658
[8]
  KD(IIaR)/KD(IIb): 18.5
[9]
  Kd: 15 µM
[10]
  KD(IIaR) OF PARENT POLYPEPTIDE/KD(IIaR) OF ALTERED POLYPEPTIDE: 2.4
[11]
  KD(IIb) OF PARENT POLYPEPTIDE/KD(IIb) OF ALTERED POLYPEPTIDE: 127

B19: IL6R-BP241/IL6R-L (antibody, human IgG1, kappa, name in EU numbering)
heavy: B4 heavy with Y236L, D298Y, A328D, K332R
light: not shown
notes: EU numbering; copies: 2 + 2
[13]
  Kd: 9 µM
